From patent publication US20110171231A1 (published 2011)

T1: recombinant mouse PlGF-2 (mouse, UniProt P49764 24-158, limits assumed)
T1 sequence (looked up): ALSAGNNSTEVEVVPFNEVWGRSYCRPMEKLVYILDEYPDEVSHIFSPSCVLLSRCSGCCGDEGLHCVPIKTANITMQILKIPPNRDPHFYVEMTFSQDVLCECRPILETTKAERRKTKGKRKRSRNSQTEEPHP

T2: human PlGF-2 (human, UniProt P49763-3 19-170)
T2 construct: Panning used human PlGF residues 19-116 and human PlGF-1; also called hPlGF-2; hPlGF
T2 sequence (looked up): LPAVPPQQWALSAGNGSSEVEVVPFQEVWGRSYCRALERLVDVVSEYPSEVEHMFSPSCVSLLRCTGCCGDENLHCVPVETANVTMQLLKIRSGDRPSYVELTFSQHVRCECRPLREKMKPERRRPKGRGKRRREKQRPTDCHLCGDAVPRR

B1: anti-PlGF monoclonal antibody C9.V2 (antibody, mouse IgG2a, V domains shown)
VH: EVQLVESGGGLVQPGGSLRLSCAASGFTFTNTWISWVRQAPGKGLEWVGSITPANGYTNYADSVKGRFTISADTSKNTAYLQMNSLRAEDTAVYYCARAVYPWFFAYWGQGTLVTVSS
VL: DIQMTQSPSSLSASVGDRVTITCRASQYVSHAVAWYQQKPGKAPKLLIYSASFLYSGVPSRFSGSGSGTDFTLTISSLQPEDFATYYCQSAYTPPTTFGQGTKVEIK
notes: also called C9v2.9; anti-PlGF MAb C9v2

Experiments:
[1] = target: T1, recombinant mouse PlGF-2; experiment: competition ELISA on mPlGF-coated plate; blocked ligand: biotinylated NRP-2
Procedure: The ability of the anti-PlGF Mabs C9.V2 and 7A10 to block the interaction between PlGF and its co-receptors NRP-1 and NRP-2 (Gluzman-Poltorak et al., 2000; Mamluk et al., 2002) was also tested. For PlGF/NRP1 and PlGF/NRP2 competition binding assays, Microtiter plates (Nunc, Rochester, N.Y., USA) were coated with recombinant mouse PlGF (BioVision, Mountain View, Calif., USA) either at 2 μg/mL (for PlGF/NRP1 binding) or at 4 ug/mL (for PlGF/NRP2 binding) in PBS. After an overnight incubation at 4° C., assay plates were washed with wash buffer (PBS/0.05% Tween 20) and treated with block buffer (PBS/0.5% BSA) for 1 to 2 hours. Samples were serially diluted in sample diluent (PBS/0.5% BSA/15 ppm Proclin/0.05% Tween 20/0.2% BGG/0.25% CHAPS/5 mM EDTA/0.3 M NaCl, pH7.4) containing 0.25 ug/mL of heparin (Sigma, St. Louis, Mo., US) and incubated in the presence of either 100 ng/mL of biotin-mouse
NRP1-Fc (0.66 nM for PlGF/NRP1 binding) or 425 ng/mL of biotin-NRP2-Fc (6 nM for PlGF/NRP2-binding). After incubation for 2 hours, assay plates were washed 6 times with wash buffer and then incubated for 45 to 60 minutes with AMDEX streptavidin-HRP (GE Healthcare, Pittsburgh, Pa., USA) diluted 10,000 folds in assay buffer (PBS/0.5% BSA/0.05% Tween 20, pH7.4). […] Absorbance was measured at 450 nm against a reference wavelength of 620 nm.

[2] = target: T1, recombinant mouse PlGF-2; experiment: Biacore, anti-mouse Fc chip
[3] = target: T2, human PlGF-2; experiment: Biacore, anti-mouse Fc chip
[4] = target: T1, recombinant mouse PlGF-2; experiment: cell-based or functional assay

| Molecule | IC50 (read off the curve) [1] [nM] | Kd [2] [nM] | Kd [3] [nM] | calculated IC50 (PlGF-induced migration of 67NR-VEGFR-1 cells, FIG. 2) [4] [nM] |
| --- | --- | --- | --- | --- |
| mFLT1(1-3)-IgG (from UniProt P35969) (Fc fusion) | 4 | – | – | – |
| B1 | ~4 | 0.9 | 0.8 | 0.8 |
